In patent publication US20250263469A1 (HOSPITAL FOR SICK CHILDREN, published 2025):
Changes are numbered by the printed parent chain.

B1: mAb 192 (antibody, V domains shown)
VH: QVQLVQSGAEVKKPGSSVKVSCKASGGTFSSYAISWVRQAPGQGLEWMGWINPNSGGANYAQKFQGRVTITADESTSTAYMELSSLRSEDTAVYYCSTYYYDSSGYSTDYWGQGTLVTVSS
VL: DIVMTQSPLSLPVTPGEPASISCRSSQSLLHSNGYNYLDWYLQKPGQSPQLLIYAASSLQSGVPDRFSGSGSGTDFTLKISRVEAEDVGVYYCMQALQTPYTFGQGTKLEIKR
B2: mAb 180 (antibody, V domains shown)
VH: QVQLVQSGAEVKKPGSSVKVSCKASGYTFTSYAMHWVRQAPGQGLEWMGRISPRSGGTKYAQRFQGRVTITADESTSTAYMELSSLRSEDTAVYYCAREAVAGTHPQAGDFDLWGRGTLVTVSS
VL: B1 VL with M94Q, A96Y, L97Y, Q98S, T99S
B3: mAb 108 (antibody, V domains shown)
VH: QVQLVQSGAEVKKPGASVKVSCKASGYIFSRYAIHWVRQAPGQGLEWMGWMNPISGNTDYAPNFQGRVTMTRDTSTSTVYMELSSLRSEDTAVYYCAKDGSQLAYLVEYFQHWGQGTLVTVSS
VL: DIQMTQSPSSLSASVGDRVTITCRASQVITNNLAWYQQKPGKAPKLLIYDASTLETGVPSRFSGSGSGTDFTLTISSLQPEDFATYYCQQSYTFPYTFGQGTKVEIKR
B4: mAb 324 (antibody, V domains shown)
VH: QVQLVQSGAEVKKPGASVKVSCKASGGTFNNYGISWVRQAPGQGLEWMGWMNPNSGNTGYAQKFQGRVTMTRDTSTSTVYMELSSLRSEDTAVYYCARVGDYGDYIVSPFDLWGRGTLVTVSS
VL: B3 VL with V28S, N31T, N32Y, A34N, T53N, T93S, F94T, Y96P
B5: mAb 64 (antibody, V domains shown)
VH: EVQLLESGGGLVQPGGSLRLSCAASGFPFSQHGMHWVRQAPGKGLEWVSAIDRSGSYIYYADSVKGRFTISRDNSKNTLYLQMNSLRAEDTAVYYCARDTYGGKVTYFDYWGQGTLVTVSS
VL: B3 VL with V28G, T30S, N31S, N32H, T53N, S91T, T93S, F94T, Y96W
B6: mAb 82 (antibody, V domains shown)
VH: QVQLVQSGAEVKKPGASVKVSCKASGGSFSTSAFYWVRQAPGQGLEWMGWINPYTGGTNYAQKFQGRVTMTRDTSTSTVYMELSSLRSEDTAVYYCARSRALYGSGSYFDYWGQGTLVTVSS
VL: B3 VL with T30S, N32Y, T53N, Y92F, T93S, F94P, Y96P, K103R, V104L
B7: mAb 46 (antibody, V domains shown)
VH: EVQLLESGGGLVQPGRSLRLSCAASGFTFSSYAMSWVRQAPGKGLEWVSTIYSGGSTYYADSVKGRFTISRDNSKNTLYLQMNSLRAEDTAVYYCARGDSRDAFDIWGQGTMVTVSS
VL: B3 VL with V28S, T30S, N31S, N32W, T53N, T93S, F94T, Y96F, Q100P, E105D
B8: mAb 349 (antibody, V domains shown)
VH: EVQLLESGGGLVQPGGSLRLSCAASGFTFSNYGMHWVRQAPGKGLEWVSGISSAGSITNYADSVKGRFTISRDNSKNTLYLQMNSLRAEDTAVYYCAGNHAGTTVTSEYFQHWGQGTLVTVSS
VL: B3 VL with V28S, T30S, N31S, N32W, A51T, T53N, F94T, Y96W, K103R, V104L
B9: mAb 254 (antibody, V domains shown)
VH: EVQLLESGGGLVQPGGSLRLSCAASGFTFSSSAMHWVRQAPGKGLEWVSAIGTGGDTYYADSVKGRFTISRDNSKNTLYLQMNSLRAEDTAVYYCAREGDGYNFYFDYWGQGTLVTVSS
VL: DIQMTQSPSSLSASVGDRVTITCRASQGISSYLAWYQQKPGKAPKLLIYDASSLQIGVPSRFSGSGSGTDFTLTISSLQPEDFATYYCLQSYSTPPWTFGQGTKVEIKR
B10: mAb 368 (antibody, V domains shown)
VH: QVQLVQSGAEVKKPGSSVKVSCKASGYTFTSYDINWVRQAPGQGLEWMGAIMPMFGTANYAQKFQGRVTITADESTSTAYMELSSLRSEDTAVYYCARGSSGYYYGWGQGTLVTVSS
VL: not shown
B11: mAb 178 (antibody, V domains shown)
VH: QVQLVQSGAEVKKPGASVKVSCKASGYTFTDYHMHWVRQAPGQGLEWMGWINPNSGGTNYAQKFQGRVTMTRDTSTSTVYMELSSLRSEDTAVYYCARDISSWYEITKFDPWGQGTLVTVSS
VL: EIVMTQSPATLSVSPGERATLSCKASQSVSGTYLAWYQQKPGQAPRLLIYGASTRATGIPARFSGSGSGTEFTLTISSLQSEDFAVYYCLQTHSYPPTFGQGTKVEIKR
B12: mAb 128 (antibody, V domains shown)
VH: QVQLVQSGAEVKKPGASVKVSCKASGYTFTHYYMHWVRQAPGQGLEWMGIINPSSSSASYSQKFQGRVTMTRDTSTSTVYMELSSLRSEDTAVYYCARDGRYGSGSYPFDYWGQGTLVTVSS
VL: DIQMTQSPSSLSASVGDRVTITCRASQNISRYLNWYQQKPGKAPKLLIYDASNLETGVPSRFSGSGSGTDFTLTISSLQPEDFATYYCQQANGFPPTFGQGTKLEIKR
B13: mAb 158 (antibody, V domains shown)
VH: QVQLVQSGAEVKKPGASVKVSCKASGYTFTGYYMHWVRQAPGQGLEWMGWINPLNGGTNFAPKFQGRVTMTRDTSTSTVYMELSSLRSEDTAVYYCARDPGGSYSNDAFDIWGQGTLVTVSS
VL: B12 VL with N28S, T56S, G93S, P96L, Q100G, L104V, E105D
B14: mAb 56 (antibody, V domains shown)
VH: QVQLVQSGAEVKKPGASVKVSCKASGYTFTSYGISWVRQAPGQGLEWMGWISAYNGNTNYAQKLQGRVTMTRDTSTSTVYMELSSLRSEDTAVYYCARDIGPIDYWGQGTLVTVSS
VL: B12 VL with N28G, R31S, N34A, E55Q, T56S, G93S, P96S, L104V
B15: mAb 120 (antibody, V domains shown)
VH: QVQLVQSGAEVKKPGASVKVSCKASGYTFTSYDINWVRQAPGQGLEWMGMIDPSGGSTSYAQKFQGRVTMTRDTSTSTVYMELSSLRSEDTAVYYCAKDFGGGTRYDYWYFDLWGRGTLVTVSS
VL: EIVMTQSPATLSVSPGERATLSCRASQSVSSRYLAWYQQKPGQAPRLLIYGASTRATGIPARFSGSGSGTEFTLTISSLQSEDFAVYYCQQYYTTPRTFGQGTRLEIKR
B16: mAb 52 (antibody, V domains shown)
VH: QVQLVQSGAEVKKPGSSVKVSCKASGYTFTSYGISWVRQAPGQGLEWMGGIIPMFGTTNYAQKFQGRVTITADKSTSTAYMELSSLRSEDTAVYYCARDRGDTIDYWGQGTLVTVSS
VL: DIQMTQSPSSLSASVGDRVTITCRASQGISNNLNWYQQKPGKAPKLLIYAASSLESGVPSRFSGSGSGTDFTLTISSLQPEDFATYYCQQGNGFPLTFGPGTKVDIKR
B17: mAb 236 (antibody, V domains shown)
VH: QVQLVQSGAEVKKPGASVKVSCKASGGTFTSYGINWVRQAPGQGLEWMGWMNPNSGNTGYAQKFQGRVTMTRDTSTSTVYMELSSLRSEDTAVYYCASRGIQLLPRGMDVWGQGTTVTVSS
VL: not shown
B18: mAb 160 (antibody, V domains shown)
VH: QVQLVQSGAEVKKPGASVKVSCKASGYTFTGHDMHWVRQAPGQGLEWMGIINPSGGSTSYAQKFQGRVTMTRDTSTSTVYMELSSLRSEDTAVYYCARANSLRYYYGMDVWGQGTMVTVSS
VL: DIQMTQSPSSLSASVGDRVTITCRASQSVSSWLAWYQQKPGKAPKLLIYAASSLQSGVPSRFSGSGSGTDFTLTISSLQPEDFATYYCQQGYTTPYTFGQGTKLEIKR
B19: 4A8 IgG (antibody, V domains shown)
VH: EVQLVESGAEVKKPGASVKVSCKVSGYTLTELSMHWVRQAPGKGLEWMGGFDPEDGETMYAQKFQGRVTMTEDTSTDTAYMELSSLRSEDTAVYYCATSTAVAGTPDLFDYYYGMDVWGQGTTVTVSS
VL: EIVMTQSPLSSPVTLGQPASISCRSSQSLVHSDGNTYLSWLQQRPGQPPRLLIYKISNRFSGVPDRFSGSGAGTDFTLKISRVEAEDVGVYYCTQATQFPYTFGQGTKVDIK

Target: T1, SARS-CoV-2 Spike on pseudotyped virus (PsV) (SARS-CoV-2, UniProt P0DTC2 14-1273)
Assay: cell-based or functional assay

Row | Binder | IC50 SARS-CoV2 PsV, IgG
1 | B1 | > 50 µg/mL
2 | B2 | > 50 µg/mL
3 | B3 | > 50 µg/mL
4 | B4 | 0.78 µg/mL
5 | B5 | > 50 µg/mL
6 | B6 | 1.6 µg/mL
7 | B7 | 2.1 µg/mL
8 | B8 | > 50 µg/mL
9 | B9 | > 50 µg/mL
10 | B10 | > 50 µg/mL
11 | B11 | > 50 µg/mL
12 | B12 | > 50 µg/mL
13 | B13 | > 50 µg/mL
14 | B14 | > 50 µg/mL
15 | B15 | > 50 µg/mL
16 | B16 | 0.55 µg/mL
17 | B17 | 0.057 µg/mL
18 | B18 | > 50 µg/mL

Target: T1, SARS-CoV-2 Spike on pseudotyped virus …
Assay: cell-based or functional assay
Remark: another data set of the same source

Row | Binder | Median IC50, SARS-CoV-2 PsV neutralization
19 | B1 | > 50 µg/mL
20 | B2 | > 50 µg/mL
21 | B3 | > 50 µg/mL
22 | B4 | 0.78 µg/mL
23 | B5 | > 50 µg/mL
24 | B6 | 1.6 µg/mL
25 | B7 | 2.1 µg/mL
26 | B8 | > 50 µg/mL
27 | B9 | > 50 µg/mL
28 | B10 | > 50 µg/mL
29 | B11 | > 50 µg/mL
30 | B12 | > 50 µg/mL
31 | B13 | > 50 µg/mL
32 | B14 | > 50 µg/mL
33 | B15 | > 50 µg/mL
34 | B16 | 0.61 µg/mL
35 | B17 | 0.057 µg/mL
36 | B18 | > 50 µg/mL

Target: T1, SARS-CoV-2 Spike on pseudotyped virus …
Assay: cell-based or functional assay
Remark: another data set of the same source

Row | Binder | Median IC50, SARS-CoV-2 PsV neutralization
37 | B19 | > 100 g/mL as printed (µg/mL meant)
